Patent US20250262210A1 (TRUSTEES OF COLUMBIA UNIVERSITY IN THE CITY OF NEW YORK, published 2025)

Legend:
Assay in all cases: IP/MS, LZTR1 wild type-FLAG, U87
[1] = target: TTI1 (human, UniProt O43156 1-1089)
Method in brief: (§1)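 Gel slices were reduced with 5 mM DTT, alkylated with 11 mM IAA and digested overnight at 37° C. with trypsin. Peptides were analysed on an Orbitrap Fusion Tribrid by LC-MS/MS.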

[2] = target: T1, ABR (human, UniProt Q12979 1-859, limits assumed)
T1 sequence (looked up): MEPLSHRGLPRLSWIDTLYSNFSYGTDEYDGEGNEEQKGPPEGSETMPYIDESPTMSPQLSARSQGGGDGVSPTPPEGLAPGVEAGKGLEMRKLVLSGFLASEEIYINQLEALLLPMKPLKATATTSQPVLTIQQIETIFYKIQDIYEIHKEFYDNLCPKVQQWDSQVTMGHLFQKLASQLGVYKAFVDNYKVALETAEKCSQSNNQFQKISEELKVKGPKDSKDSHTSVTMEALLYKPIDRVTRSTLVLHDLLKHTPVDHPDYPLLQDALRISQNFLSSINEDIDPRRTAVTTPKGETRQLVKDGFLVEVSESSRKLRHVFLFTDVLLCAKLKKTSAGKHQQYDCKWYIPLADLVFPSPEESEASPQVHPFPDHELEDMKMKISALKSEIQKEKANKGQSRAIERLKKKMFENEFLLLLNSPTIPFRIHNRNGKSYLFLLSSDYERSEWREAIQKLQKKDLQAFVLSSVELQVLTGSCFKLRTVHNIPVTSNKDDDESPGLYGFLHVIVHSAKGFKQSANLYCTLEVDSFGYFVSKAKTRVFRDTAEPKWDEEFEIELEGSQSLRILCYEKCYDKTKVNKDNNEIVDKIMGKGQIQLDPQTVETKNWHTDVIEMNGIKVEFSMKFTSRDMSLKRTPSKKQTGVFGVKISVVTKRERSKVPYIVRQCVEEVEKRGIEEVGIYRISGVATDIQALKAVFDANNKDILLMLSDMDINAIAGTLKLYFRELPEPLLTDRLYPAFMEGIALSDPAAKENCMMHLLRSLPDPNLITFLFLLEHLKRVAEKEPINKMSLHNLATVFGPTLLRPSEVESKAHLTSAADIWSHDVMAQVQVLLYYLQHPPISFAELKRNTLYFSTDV
Method in brief: as §1

[3] = target: ARHGEF40 (human, UniProt Q8TER5 1-1519, limits assumed)
Method in brief: as §1

[4] = target: POLR1A (human, UniProt O95602 1-1720)
Method in brief: as §1

[5] = target: T2, SMPD4 (human, UniProt Q9NXE4 1-866, limits assumed)
T2 sequence (looked up): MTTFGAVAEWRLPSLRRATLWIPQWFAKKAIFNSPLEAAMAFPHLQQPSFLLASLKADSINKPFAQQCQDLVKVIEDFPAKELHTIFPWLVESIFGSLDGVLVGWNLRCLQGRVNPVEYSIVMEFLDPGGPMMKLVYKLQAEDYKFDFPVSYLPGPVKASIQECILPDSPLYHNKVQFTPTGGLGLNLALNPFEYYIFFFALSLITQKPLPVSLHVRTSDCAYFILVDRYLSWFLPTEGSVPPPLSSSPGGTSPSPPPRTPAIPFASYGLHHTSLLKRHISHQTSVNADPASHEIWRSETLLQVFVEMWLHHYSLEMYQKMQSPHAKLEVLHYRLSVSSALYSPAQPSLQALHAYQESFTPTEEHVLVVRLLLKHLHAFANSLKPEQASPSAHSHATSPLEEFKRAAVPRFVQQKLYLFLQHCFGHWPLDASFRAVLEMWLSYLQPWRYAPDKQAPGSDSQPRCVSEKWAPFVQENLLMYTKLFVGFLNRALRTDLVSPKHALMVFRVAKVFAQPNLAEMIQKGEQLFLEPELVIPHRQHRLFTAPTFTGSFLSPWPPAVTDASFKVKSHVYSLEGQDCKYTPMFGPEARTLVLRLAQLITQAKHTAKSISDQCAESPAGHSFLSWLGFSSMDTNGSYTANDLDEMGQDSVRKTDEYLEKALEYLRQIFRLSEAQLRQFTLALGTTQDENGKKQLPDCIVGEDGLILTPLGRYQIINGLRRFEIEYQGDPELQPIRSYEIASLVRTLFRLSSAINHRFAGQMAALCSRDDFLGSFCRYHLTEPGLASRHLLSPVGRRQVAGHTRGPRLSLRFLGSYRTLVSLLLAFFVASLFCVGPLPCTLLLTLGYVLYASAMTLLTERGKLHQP
Method in brief: as §1

TTI1, sequence (O43156 whole entry, the tested form may be a part): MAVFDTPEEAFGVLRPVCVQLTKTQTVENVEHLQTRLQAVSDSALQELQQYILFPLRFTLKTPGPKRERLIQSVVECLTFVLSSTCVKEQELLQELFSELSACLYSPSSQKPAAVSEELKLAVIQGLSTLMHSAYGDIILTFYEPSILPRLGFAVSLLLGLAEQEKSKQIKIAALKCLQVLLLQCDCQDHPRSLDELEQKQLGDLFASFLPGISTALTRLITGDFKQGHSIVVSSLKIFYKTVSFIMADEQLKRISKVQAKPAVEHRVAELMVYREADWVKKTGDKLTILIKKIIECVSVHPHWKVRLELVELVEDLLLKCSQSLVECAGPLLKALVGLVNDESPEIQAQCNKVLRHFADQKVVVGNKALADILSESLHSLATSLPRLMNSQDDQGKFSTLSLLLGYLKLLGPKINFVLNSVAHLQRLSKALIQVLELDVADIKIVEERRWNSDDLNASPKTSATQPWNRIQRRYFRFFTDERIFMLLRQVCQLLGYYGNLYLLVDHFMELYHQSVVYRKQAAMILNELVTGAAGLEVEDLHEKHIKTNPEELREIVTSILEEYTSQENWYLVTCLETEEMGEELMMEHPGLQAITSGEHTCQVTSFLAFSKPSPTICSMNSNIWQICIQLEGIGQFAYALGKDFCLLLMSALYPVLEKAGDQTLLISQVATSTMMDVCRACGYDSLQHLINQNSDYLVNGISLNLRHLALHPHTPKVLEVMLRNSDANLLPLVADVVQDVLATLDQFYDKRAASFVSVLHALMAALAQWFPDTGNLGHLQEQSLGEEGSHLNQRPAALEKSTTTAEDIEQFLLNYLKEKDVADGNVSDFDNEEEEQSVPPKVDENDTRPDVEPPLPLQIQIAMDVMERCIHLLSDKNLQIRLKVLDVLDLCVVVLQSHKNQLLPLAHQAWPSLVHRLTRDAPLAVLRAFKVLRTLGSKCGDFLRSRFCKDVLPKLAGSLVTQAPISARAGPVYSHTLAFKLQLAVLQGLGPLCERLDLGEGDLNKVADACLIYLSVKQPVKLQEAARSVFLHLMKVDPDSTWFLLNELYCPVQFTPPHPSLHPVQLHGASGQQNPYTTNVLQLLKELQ
POLR1A, sequence (O95602 whole entry): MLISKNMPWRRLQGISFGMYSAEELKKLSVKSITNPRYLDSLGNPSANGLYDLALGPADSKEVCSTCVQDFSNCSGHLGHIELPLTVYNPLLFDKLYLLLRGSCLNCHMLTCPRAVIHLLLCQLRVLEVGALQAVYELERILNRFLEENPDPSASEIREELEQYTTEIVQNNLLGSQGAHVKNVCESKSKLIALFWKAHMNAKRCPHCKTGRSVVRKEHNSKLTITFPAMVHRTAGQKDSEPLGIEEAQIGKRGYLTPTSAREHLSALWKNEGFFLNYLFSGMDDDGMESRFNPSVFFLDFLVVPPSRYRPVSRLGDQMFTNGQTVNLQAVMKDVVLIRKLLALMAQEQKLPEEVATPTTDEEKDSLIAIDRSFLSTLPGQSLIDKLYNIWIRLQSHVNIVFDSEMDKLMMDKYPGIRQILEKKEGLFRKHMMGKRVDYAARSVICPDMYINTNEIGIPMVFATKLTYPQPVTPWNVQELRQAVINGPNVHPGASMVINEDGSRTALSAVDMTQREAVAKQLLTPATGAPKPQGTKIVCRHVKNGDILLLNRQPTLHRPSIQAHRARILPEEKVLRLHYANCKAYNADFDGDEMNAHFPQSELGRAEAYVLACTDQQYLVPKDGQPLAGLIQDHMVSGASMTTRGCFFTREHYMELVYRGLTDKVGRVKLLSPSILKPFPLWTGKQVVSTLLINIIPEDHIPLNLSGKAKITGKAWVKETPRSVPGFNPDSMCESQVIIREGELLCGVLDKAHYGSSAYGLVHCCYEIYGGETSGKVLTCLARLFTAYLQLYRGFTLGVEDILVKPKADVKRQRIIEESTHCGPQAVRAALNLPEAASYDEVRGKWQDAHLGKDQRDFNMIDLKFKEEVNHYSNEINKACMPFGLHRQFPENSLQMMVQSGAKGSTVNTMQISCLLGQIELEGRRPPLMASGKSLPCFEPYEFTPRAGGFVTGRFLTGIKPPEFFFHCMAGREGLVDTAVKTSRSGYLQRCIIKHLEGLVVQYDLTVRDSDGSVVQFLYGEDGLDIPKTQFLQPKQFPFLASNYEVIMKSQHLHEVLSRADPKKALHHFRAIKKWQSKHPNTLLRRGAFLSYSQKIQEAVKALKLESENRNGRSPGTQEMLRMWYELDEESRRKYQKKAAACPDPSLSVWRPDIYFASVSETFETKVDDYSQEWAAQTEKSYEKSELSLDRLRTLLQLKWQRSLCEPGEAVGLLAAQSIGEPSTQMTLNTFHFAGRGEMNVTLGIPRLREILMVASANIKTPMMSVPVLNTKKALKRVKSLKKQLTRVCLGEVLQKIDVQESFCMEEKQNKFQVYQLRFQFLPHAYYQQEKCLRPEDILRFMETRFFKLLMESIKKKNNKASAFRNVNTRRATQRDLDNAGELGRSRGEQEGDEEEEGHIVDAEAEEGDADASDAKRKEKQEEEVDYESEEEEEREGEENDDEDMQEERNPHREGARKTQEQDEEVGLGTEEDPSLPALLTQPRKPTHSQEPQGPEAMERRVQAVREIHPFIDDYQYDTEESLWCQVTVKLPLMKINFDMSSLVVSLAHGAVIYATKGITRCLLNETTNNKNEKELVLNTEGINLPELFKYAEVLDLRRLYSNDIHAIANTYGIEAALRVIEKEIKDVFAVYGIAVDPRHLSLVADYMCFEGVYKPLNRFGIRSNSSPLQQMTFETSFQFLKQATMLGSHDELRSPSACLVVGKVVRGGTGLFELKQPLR
ARHGEF40, sequence (Q8TER5 whole entry): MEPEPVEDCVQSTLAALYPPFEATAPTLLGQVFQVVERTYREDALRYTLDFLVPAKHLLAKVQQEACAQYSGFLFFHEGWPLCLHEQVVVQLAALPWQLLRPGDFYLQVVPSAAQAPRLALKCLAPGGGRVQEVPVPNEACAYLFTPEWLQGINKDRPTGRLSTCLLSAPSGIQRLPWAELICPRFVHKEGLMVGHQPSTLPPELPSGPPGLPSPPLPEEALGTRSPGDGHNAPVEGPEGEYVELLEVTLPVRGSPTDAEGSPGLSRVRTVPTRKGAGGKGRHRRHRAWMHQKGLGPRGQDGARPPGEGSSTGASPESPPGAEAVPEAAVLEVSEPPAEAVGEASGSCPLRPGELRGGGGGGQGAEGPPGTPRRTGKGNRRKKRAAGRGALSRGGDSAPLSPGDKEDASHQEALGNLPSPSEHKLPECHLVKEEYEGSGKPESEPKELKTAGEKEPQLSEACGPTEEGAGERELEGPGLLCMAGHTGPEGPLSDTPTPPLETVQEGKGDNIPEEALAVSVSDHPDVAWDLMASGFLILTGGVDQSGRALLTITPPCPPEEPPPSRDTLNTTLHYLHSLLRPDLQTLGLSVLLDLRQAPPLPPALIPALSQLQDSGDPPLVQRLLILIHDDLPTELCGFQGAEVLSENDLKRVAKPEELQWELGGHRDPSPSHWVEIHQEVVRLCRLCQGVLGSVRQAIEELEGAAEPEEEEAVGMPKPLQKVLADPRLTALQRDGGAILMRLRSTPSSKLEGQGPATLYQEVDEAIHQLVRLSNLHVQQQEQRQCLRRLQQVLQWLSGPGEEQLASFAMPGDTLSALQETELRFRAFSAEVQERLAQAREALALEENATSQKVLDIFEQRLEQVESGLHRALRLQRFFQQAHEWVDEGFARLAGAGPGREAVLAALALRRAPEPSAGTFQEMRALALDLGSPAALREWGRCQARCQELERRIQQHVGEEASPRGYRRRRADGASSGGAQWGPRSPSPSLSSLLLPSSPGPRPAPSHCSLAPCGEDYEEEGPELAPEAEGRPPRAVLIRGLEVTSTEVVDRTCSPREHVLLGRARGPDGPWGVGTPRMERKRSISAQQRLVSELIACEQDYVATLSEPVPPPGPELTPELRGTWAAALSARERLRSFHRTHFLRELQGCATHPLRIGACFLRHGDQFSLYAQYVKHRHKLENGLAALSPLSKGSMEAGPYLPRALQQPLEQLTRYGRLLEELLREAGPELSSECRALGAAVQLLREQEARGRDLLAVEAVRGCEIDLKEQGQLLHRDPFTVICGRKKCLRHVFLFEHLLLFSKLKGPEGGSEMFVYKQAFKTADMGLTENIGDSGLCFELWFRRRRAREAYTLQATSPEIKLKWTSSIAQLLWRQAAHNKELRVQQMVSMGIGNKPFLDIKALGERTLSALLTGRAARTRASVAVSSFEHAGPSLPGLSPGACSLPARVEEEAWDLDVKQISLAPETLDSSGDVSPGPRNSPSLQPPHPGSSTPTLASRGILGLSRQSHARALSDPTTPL

- binding result [1]: binds
- binding result [2]: binds
- binding result [3]: binds
- binding result [4]: binds
- binding result [5]: binds
B1: LZTR1-FLAG (other, human, UniProt Q8N653 1-840, looked up)
chain: MAGPGSTGGQIGAAALAGGARSKVAPSVDFDHSCSDSVEYLTLNFGPFETVHRWRRLPPCDEFVGARRSKHTVVAYKDAIYVFGGDNGKTMLNDLLRFDVKDCSWCRAFTTGTPPAPRYHHSAVVYGSSMFVFGGYTGDIYSNSNLKNKNDLFEYKFATGQWTEWKIEGRLPVARSAHGATVYSDKLWIFAGYDGNARLNDMWTIGLQDRELTCWEEVAQSGEIPPSCCNFPVAVCRDKMFVFSGQSGAKITNNLFQFEFKDKTWTRIPTEHLLRGSPPPPQRRYGHTMVAFDRHLYVFGGAADNTLPNELHCYDVDFQTWEVVQPSSDSEVGGAEVPERACASEEVPTLTYEERVGFKKSRDVFGLDFGTTSAKQPTQPASELPSGRLFHAAAVISDAMYIFGGTVDNNIRSGEMYRFQFSCYPKCTLHEDYGRLWESRQFCDVEFVLGEKEECVQGHVAIVTARSRWLRRKITQARERLAQKLEQEAAPVPREAPGVAAGGARPPLLHVAIREAEARPFEVLMQFLYTDKIKYPRKGHVEDVLLIMDVYKLALSFQLCRLEQLCRQYIEASVDLQNVLVVCESAARLQLSQLKEHCLNFVVKESHFNQVIMMKEFERLSSPLIVEIVRRKQQPPPRTPLDQPVDIGTSLIQDMKAYLEGAGAEFCDITLLLDGHPRPAHKAILAARSSYFEAMFRSFMPEDGQVNISIGEMVPSRQAFESMLRYIYYGEVNMPPEDSLYLFAAPYYYGFYNNRLQAYCKQNLEMNVTVQNVLQILEAADKTQALDMKRHCLHIIVHQFTKVSKLPTLRSLSQQLLLDIIDSLASHISDKQCAELGADI
notes: Expressed in HEK 293T, HeLa or U87 cells; used as cell lysate; also called LZTR1 wild type-FLAG; LZTR1 WT; not shown: FLAG tag at the C-terminus
